T1: APBA2_2, Q99767
T1 sequence (Q99767 654-744, limits assumed, looked up): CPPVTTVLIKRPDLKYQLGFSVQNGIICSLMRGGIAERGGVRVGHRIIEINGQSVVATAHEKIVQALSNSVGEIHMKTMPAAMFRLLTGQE

T2: GRIP1_3, Q9Y3R0
T2 sequence (Q9Y3R0 247-346, limits assumed, looked up): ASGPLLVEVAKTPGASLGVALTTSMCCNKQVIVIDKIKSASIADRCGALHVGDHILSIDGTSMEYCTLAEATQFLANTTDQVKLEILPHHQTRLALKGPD

T3: GRIP1_5, Q9Y3R0
T3 sequence (Q9Y3R0 568-668, limits assumed, looked up): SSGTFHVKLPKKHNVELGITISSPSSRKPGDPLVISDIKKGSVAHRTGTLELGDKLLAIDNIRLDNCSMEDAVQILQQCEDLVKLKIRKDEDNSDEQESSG

T4: PDZRN3_1, Q9UPQ7
T4 sequence (Q9UPQ7 244-349, limits assumed, looked up): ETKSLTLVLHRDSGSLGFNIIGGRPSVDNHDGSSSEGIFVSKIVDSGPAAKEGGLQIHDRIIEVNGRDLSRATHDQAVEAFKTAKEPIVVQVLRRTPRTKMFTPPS

T5: RADIL, Q96JH8
T5 sequence (Q96JH8 971-1071, limits assumed, looked up): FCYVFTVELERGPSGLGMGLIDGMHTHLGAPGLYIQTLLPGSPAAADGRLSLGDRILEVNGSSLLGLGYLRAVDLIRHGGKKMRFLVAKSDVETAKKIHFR

T6: SNTB1, Q13884
T6 sequence (Q13884 107-205, limits assumed, looked up): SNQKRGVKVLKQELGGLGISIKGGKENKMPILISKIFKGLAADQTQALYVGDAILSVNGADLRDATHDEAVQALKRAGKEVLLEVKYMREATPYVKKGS

T7: TX1BP3, O14907
T7 sequence (O14907 10-122, limits assumed, looked up): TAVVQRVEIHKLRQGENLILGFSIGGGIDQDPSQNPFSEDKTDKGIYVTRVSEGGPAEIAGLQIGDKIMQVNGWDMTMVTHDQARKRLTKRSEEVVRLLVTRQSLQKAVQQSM


molecular target: T1, APBA2_2, Q99767; experiment: holdup assay; set-up: key: below the threshold = too weak to quantify, mostly under pKd 3.1 to 4; conditions: plain residues with an end cap or a label only (N-terminal biotin on a linker: ado-ado)

Row | Binder | pKd
1 | YYKRPVQEWV [MMP24, Q9Y5R2] | below the threshold
2 | SKSNFGSEPL [KIF17, Q9P2E2] | below the threshold

molecular target: CASK, O14936; experiment: holdup assay; set-up: key: below the threshold = too weak to quantify, mostly under pKd 3.1 to 4; conditions: plain residues with an end cap or a label only (N-terminal biotin on a linker: ado-ado)
Sequence (O14936 487-570): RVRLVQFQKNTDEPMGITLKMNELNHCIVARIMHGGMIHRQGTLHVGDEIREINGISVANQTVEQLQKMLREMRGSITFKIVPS

Row | Binder | pKd
3 | YYKRPVQEWV [MMP24, Q9Y5R2] | below the threshold
4 | SKSNFGSEPL [KIF17, Q9P2E2] | below the threshold

molecular target: DLG4_2, P78352; experiment: holdup assay; set-up: key: below the threshold = too weak to quantify, mostly under pKd 3.1 to 4; conditions: plain residues with an end cap or a label only (N-terminal biotin on a linker: ado-ado)
Sequence (P78352 155-259): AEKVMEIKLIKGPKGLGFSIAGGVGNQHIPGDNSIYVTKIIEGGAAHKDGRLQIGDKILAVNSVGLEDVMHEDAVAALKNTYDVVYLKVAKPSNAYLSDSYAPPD

Row | Binder | pKd
5 | YYKRPVQEWV [MMP24, Q9Y5R2] | 4.03
6 | SKSNFGSEPL [KIF17, Q9P2E2] | below the threshold

molecular target: DLG4_3, P78352; experiment: holdup assay; set-up: key: below the threshold = too weak to quantify, mostly under pKd 3.1 to 4; conditions: plain residues with an end cap or a label only (N-terminal biotin on a linker: ado-ado)
Sequence (P78352 306-403): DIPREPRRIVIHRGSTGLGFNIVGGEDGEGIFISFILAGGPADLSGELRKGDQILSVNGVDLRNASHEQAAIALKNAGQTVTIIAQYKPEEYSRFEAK

Row | Binder | pKd
7 | YYKRPVQEWV [MMP24, Q9Y5R2] | below the threshold
8 | SKSNFGSEPL [KIF17, Q9P2E2] | below the threshold

molecular target: FRMPD3, Q5JV73; experiment: holdup assay; set-up: key: below the threshold = too weak to quantify, mostly under pKd 3.1 to 4; conditions: plain residues with an end cap or a label only (N-terminal biotin on a linker: ado-ado)
Sequence (Q5JV73 12-100): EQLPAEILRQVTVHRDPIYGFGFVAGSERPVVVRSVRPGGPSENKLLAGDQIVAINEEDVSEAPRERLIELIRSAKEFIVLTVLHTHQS

Row | Binder | pKd
9 | YYKRPVQEWV [MMP24, Q9Y5R2] | 3.55
10 | SKSNFGSEPL [KIF17, Q9P2E2] | below the threshold

molecular target: FRMPD4, Q14CM0; experiment: holdup assay; set-up: key: below the threshold = too weak to quantify, mostly under pKd 3.1 to 4; conditions: plain residues with an end cap or a label only (N-terminal biotin on a linker: ado-ado)
Sequence (Q14CM0 67-160): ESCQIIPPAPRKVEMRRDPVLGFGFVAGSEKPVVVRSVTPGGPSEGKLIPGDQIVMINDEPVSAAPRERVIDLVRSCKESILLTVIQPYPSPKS

Row | Binder | pKd
11 | YYKRPVQEWV [MMP24, Q9Y5R2] | below the threshold
12 | SKSNFGSEPL [KIF17, Q9P2E2] | below the threshold

molecular target: GORASP1, Q9BQQ3; experiment: holdup assay; set-up: key: below the threshold = too weak to quantify, mostly under pKd 3.1 to 4; conditions: plain residues with an end cap or a label only (N-terminal biotin on a linker: ado-ado)
Sequence (Q9BQQ3 1-208): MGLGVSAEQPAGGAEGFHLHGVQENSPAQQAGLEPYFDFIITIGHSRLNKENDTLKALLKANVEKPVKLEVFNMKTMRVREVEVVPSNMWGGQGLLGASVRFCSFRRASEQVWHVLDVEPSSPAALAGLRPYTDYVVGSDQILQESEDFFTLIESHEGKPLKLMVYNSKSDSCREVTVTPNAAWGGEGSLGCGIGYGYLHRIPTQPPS

Row | Binder | pKd
13 | YYKRPVQEWV [MMP24, Q9Y5R2] | 4.9
14 | SKSNFGSEPL [KIF17, Q9P2E2] | below the threshold

molecular target: T2, GRIP1_3, Q9Y3R0; experiment: holdup assay; set-up: key: below the threshold = too weak to quantify, mostly under pKd 3.1 to 4; conditions: plain residues with an end cap or a label only (N-terminal biotin on a linker: ado-ado)

Row | Binder | pKd
15 | YYKRPVQEWV [MMP24, Q9Y5R2] | below the threshold
16 | SKSNFGSEPL [KIF17, Q9P2E2] | below the threshold

molecular target: T3, GRIP1_5, Q9Y3R0; experiment: holdup assay; set-up: key: below the threshold = too weak to quantify, mostly under pKd 3.1 to 4; conditions: plain residues with an end cap or a label only (N-terminal biotin on a linker: ado-ado)

Row | Binder | pKd
17 | YYKRPVQEWV [MMP24, Q9Y5R2] | below the threshold
18 | SKSNFGSEPL [KIF17, Q9P2E2] | below the threshold

molecular target: GRIP2_4, Q9C0E4; experiment: holdup assay; set-up: key: below the threshold = too weak to quantify, mostly under pKd 3.1 to 4; conditions: plain residues with an end cap or a label only (N-terminal biotin on a linker: ado-ado)
Sequence (Q9C0E4 446-548): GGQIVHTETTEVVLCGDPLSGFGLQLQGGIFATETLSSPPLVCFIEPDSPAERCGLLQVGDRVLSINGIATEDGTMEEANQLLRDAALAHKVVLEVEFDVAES

Row | Binder | pKd
19 | YYKRPVQEWV [MMP24, Q9Y5R2] | below the threshold
20 | SKSNFGSEPL [KIF17, Q9P2E2] | below the threshold

molecular target: GRIP2_7, Q9C0E4; experiment: holdup assay; set-up: key: below the threshold = too weak to quantify, mostly under pKd 3.1 to 4; conditions: plain residues with an end cap or a label only (N-terminal biotin on a linker: ado-ado)
Sequence (Q9C0E4 934-1023): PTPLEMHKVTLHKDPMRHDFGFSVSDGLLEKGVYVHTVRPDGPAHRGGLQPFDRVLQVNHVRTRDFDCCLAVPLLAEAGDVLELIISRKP

Row | Binder | pKd
21 | YYKRPVQEWV [MMP24, Q9Y5R2] | 4.32
22 | SKSNFGSEPL [KIF17, Q9P2E2] | below the threshold

molecular target: IL16_4, Q14005; experiment: holdup assay; set-up: key: below the threshold = too weak to quantify, mostly under pKd 3.1 to 4; conditions: plain residues with an end cap or a label only (N-terminal biotin on a linker: ado-ado)
Sequence (Q14005 1229-1329): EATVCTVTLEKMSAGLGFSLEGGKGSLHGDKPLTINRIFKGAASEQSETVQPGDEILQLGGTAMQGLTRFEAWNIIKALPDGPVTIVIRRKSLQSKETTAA

Row | Binder | pKd
23 | YYKRPVQEWV [MMP24, Q9Y5R2] | 3.57
24 | SKSNFGSEPL [KIF17, Q9P2E2] | below the threshold

molecular target: Inadl_1, Q8NI35; experiment: holdup assay; set-up: key: below the threshold = too weak to quantify, mostly under pKd 3.1 to 4; conditions: plain residues with an end cap or a label only (N-terminal biotin on a linker: ado-ado)
Sequence (Q8NI35 113-229): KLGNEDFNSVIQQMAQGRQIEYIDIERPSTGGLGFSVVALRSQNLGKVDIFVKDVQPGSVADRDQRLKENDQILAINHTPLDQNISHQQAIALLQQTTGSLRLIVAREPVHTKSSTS

Row | Binder | pKd
25 | YYKRPVQEWV [MMP24, Q9Y5R2] | below the threshold
26 | SKSNFGSEPL [KIF17, Q9P2E2] | below the threshold

molecular target: Inadl_6, Q8NI35; experiment: holdup assay; set-up: key: below the threshold = too weak to quantify, mostly under pKd 3.1 to 4; conditions: plain residues with an end cap or a label only (N-terminal biotin on a linker: ado-ado)
Sequence (Q8NI35 1058-1167): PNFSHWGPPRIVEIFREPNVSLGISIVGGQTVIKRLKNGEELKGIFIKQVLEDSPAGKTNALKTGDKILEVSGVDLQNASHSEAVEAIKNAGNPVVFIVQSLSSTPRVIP

Row | Binder | pKd
27 | YYKRPVQEWV [MMP24, Q9Y5R2] | 3.7
28 | SKSNFGSEPL [KIF17, Q9P2E2] | below the threshold

molecular target: LNX1_1, Q8TBB1; experiment: holdup assay; set-up: key: below the threshold = too weak to quantify, mostly under pKd 3.1 to 4; conditions: plain residues with an end cap or a label only (N-terminal biotin on a linker: ado-ado)
Sequence (Q8TBB1 261-371): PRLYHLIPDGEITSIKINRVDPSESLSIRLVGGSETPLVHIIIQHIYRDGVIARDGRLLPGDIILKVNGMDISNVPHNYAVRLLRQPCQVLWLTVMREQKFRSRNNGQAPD

Row | Binder | pKd
29 | YYKRPVQEWV [MMP24, Q9Y5R2] | 3.5
30 | SKSNFGSEPL [KIF17, Q9P2E2] | below the threshold

molecular target: LNX1_2, Q8TBB1; experiment: holdup assay; set-up: key: below the threshold = too weak to quantify, mostly under pKd 3.1 to 4; conditions: plain residues with an end cap or a label only (N-terminal biotin on a linker: ado-ado)
Sequence (Q8TBB1 371-470): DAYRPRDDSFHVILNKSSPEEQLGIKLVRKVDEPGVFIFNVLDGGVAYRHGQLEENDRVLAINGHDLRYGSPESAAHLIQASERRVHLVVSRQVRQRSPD

Row | Binder | pKd
31 | YYKRPVQEWV [MMP24, Q9Y5R2] | 3.71
32 | SKSNFGSEPL [KIF17, Q9P2E2] | below the threshold

molecular target: LNX1_3, Q8TBB1; experiment: holdup assay; set-up: key: below the threshold = too weak to quantify, mostly under pKd 3.1 to 4; conditions: plain residues with an end cap or a label only (N-terminal biotin on a linker: ado-ado)
Sequence (Q8TBB1 500-596): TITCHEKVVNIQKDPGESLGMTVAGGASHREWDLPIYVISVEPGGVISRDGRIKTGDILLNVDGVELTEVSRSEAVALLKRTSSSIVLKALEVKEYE

Row | Binder | pKd
33 | YYKRPVQEWV [MMP24, Q9Y5R2] | below the threshold
34 | SKSNFGSEPL [KIF17, Q9P2E2] | below the threshold

molecular target: MAGI1_1, Q96QZ7; experiment: holdup assay; set-up: key: below the threshold = too weak to quantify, mostly under pKd 3.1 to 4; conditions: plain residues with an end cap or a label only (N-terminal biotin on a linker: ado-ado)
Sequence (Q96QZ7 1-106): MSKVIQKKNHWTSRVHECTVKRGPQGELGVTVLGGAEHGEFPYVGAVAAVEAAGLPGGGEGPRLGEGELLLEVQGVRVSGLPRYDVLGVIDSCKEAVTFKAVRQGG

Row | Binder | pKd
35 | YYKRPVQEWV [MMP24, Q9Y5R2] | 3.48
36 | SKSNFGSEPL [KIF17, Q9P2E2] | below the threshold

molecular target: MAGI1_2, Q96QZ7; experiment: holdup assay; set-up: key: below the threshold = too weak to quantify, mostly under pKd 3.1 to 4; conditions: plain residues with an end cap or a label only (N-terminal biotin on a linker: ado-ado)
Sequence (Q96QZ7 456-580): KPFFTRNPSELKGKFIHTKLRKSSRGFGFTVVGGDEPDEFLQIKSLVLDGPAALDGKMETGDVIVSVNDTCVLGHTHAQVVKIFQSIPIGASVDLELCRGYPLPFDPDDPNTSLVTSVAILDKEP

Row | Binder | pKd
37 | YYKRPVQEWV [MMP24, Q9Y5R2] | below the threshold
38 | SKSNFGSEPL [KIF17, Q9P2E2] | below the threshold

molecular target: MAGI2_5, Q86UL8; experiment: holdup assay; set-up: key: below the threshold = too weak to quantify, mostly under pKd 3.1 to 4; conditions: plain residues with an end cap or a label only (N-terminal biotin on a linker: ado-ado)
Sequence (Q86UL8 915-1017): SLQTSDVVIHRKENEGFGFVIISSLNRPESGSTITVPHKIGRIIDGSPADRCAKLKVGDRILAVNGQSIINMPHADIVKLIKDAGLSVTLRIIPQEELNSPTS

Row | Binder | pKd
39 | YYKRPVQEWV [MMP24, Q9Y5R2] | below the threshold
40 | SKSNFGSEPL [KIF17, Q9P2E2] | below the threshold

molecular target: MAGI2_6, Q86UL8; experiment: holdup assay; set-up: key: below the threshold = too weak to quantify, mostly under pKd 3.1 to 4; conditions: plain residues with an end cap or a label only (N-terminal biotin on a linker: ado-ado)
Sequence (Q86UL8 1141-1229): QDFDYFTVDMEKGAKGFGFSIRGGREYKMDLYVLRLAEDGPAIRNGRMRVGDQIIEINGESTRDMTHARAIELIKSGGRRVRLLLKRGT

Row | Binder | pKd
41 | YYKRPVQEWV [MMP24, Q9Y5R2] | 4.31
42 | SKSNFGSEPL [KIF17, Q9P2E2] | below the threshold

molecular target: T4, PDZRN3_1, Q9UPQ7; experiment: holdup assay; set-up: key: below the threshold = too weak to quantify, mostly under pKd 3.1 to 4; conditions: plain residues with an end cap or a label only (N-terminal biotin on a linker: ado-ado)

Row | Binder | pKd
43 | YYKRPVQEWV [MMP24, Q9Y5R2] | below the threshold
44 | SKSNFGSEPL [KIF17, Q9P2E2] | below the threshold

molecular target: PDZRN4_1, Q6ZMN7; experiment: holdup assay; set-up: key: below the threshold = too weak to quantify, mostly under pKd 3.1 to 4; conditions: plain residues with an end cap or a label only (N-terminal biotin on a linker: ado-ado)
Sequence (Q6ZMN7 213-318): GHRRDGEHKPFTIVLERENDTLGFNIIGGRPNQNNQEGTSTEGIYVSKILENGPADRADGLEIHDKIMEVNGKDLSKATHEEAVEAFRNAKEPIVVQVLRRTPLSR

Row | Binder | pKd
45 | YYKRPVQEWV [MMP24, Q9Y5R2] | below the threshold
46 | SKSNFGSEPL [KIF17, Q9P2E2] | below the threshold

molecular target: PICK1, Q9NRD5; experiment: holdup assay; set-up: key: below the threshold = too weak to quantify, mostly under pKd 3.1 to 4; conditions: plain residues with an end cap or a label only (N-terminal biotin on a linker: ado-ado)
Sequence (Q9NRD5 17-115): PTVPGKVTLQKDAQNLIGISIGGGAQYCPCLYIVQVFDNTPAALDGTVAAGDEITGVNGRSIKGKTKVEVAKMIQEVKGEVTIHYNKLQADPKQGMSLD

Row | Binder | pKd
47 | YYKRPVQEWV [MMP24, Q9Y5R2] | below the threshold
48 | SKSNFGSEPL [KIF17, Q9P2E2] | below the threshold

molecular target: T5, RADIL, Q96JH8; experiment: holdup assay; set-up: key: below the threshold = too weak to quantify, mostly under pKd 3.1 to 4; conditions: plain residues with an end cap or a label only (N-terminal biotin on a linker: ado-ado)

Row | Binder | pKd
49 | YYKRPVQEWV [MMP24, Q9Y5R2] | 5.63
50 | SKSNFGSEPL [KIF17, Q9P2E2] | below the threshold

molecular target: SCRIB_2, Q14160; experiment: holdup assay; set-up: key: below the threshold = too weak to quantify, mostly under pKd 3.1 to 4; conditions: plain residues with an end cap or a label only (N-terminal biotin on a linker: ado-ado)
Sequence (Q14160 857-960): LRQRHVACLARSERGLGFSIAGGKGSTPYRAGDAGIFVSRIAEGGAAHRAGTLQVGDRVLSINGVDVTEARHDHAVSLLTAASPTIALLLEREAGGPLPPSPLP

Row | Binder | pKd
51 | YYKRPVQEWV [MMP24, Q9Y5R2] | below the threshold
52 | SKSNFGSEPL [KIF17, Q9P2E2] | below the threshold

molecular target: SCRIB_3, Q14160; experiment: holdup assay; set-up: key: below the threshold = too weak to quantify, mostly under pKd 3.1 to 4; conditions: plain residues with an end cap or a label only (N-terminal biotin on a linker: ado-ado)
Sequence (Q14160 999-1103): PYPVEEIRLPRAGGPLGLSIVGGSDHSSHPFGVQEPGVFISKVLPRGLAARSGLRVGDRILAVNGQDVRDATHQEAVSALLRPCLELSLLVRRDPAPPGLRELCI

Row | Binder | pKd
53 | YYKRPVQEWV [MMP24, Q9Y5R2] | 3.52
54 | SKSNFGSEPL [KIF17, Q9P2E2] | below the threshold

molecular target: T6, SNTB1, Q13884; experiment: holdup assay; set-up: key: below the threshold = too weak to quantify, mostly under pKd 3.1 to 4; conditions: plain residues with an end cap or a label only (N-terminal biotin on a linker: ado-ado)

Row | Binder | pKd
55 | YYKRPVQEWV [MMP24, Q9Y5R2] | below the threshold
56 | SKSNFGSEPL [KIF17, Q9P2E2] | below the threshold

molecular target: SNX27, Q96L92; experiment: holdup assay; set-up: key: below the threshold = too weak to quantify, mostly under pKd 3.1 to 4; conditions: plain residues with an end cap or a label only (N-terminal biotin on a linker: ado-ado)

Row | Binder | pKd
57 | YYKRPVQEWV [MMP24, Q9Y5R2] | 4.2
58 | SKSNFGSEPL [KIF17, Q9P2E2] | below the threshold

molecular target: T7, TX1BP3, O14907; experiment: holdup assay; set-up: key: below the threshold = too weak to quantify, mostly under pKd 3.1 to 4; conditions: plain residues with an end cap or a label only (N-terminal biotin on a linker: ado-ado)

Row | Binder | pKd
59 | YYKRPVQEWV [MMP24, Q9Y5R2] | 3.87
60 | SKSNFGSEPL [KIF17, Q9P2E2] | 5.05
